In the supplement of paper PMC9170038:

System: MS2 coat protein
Assay: apparent KD of MS2 coat protein; designed switch direction (-1 OFF switch, 1 ON switch): -1; higher = weaker reporter binding
Procedure, shortened: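 Designed RNA switches with common flanks were transcribed on Illumina chips by stalled E. coli RNA polymerase and titrated with SNAP-549-labelled MS2 coat protein, from 0.7 or 1.5 nM doubling to 3 µM, in Tris-HCl pH 7.5 buffer with KCl, MgCl2, BSA, DTT, tRNA and Tween-20. Steps lasted 0.8–1.5 h (lowest) to 10–20 min (highest). Titrations ran without input, with 200 uM small-molecule ligand, or with an oligonucleotide input. Normalised cluster fluorescence was curve-fitted, and apparent KD is the per-design median over clusters.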

[1] = Eterna round: R95, input ligand: FMN 200 uM
[2] = Eterna round: R95, input ligand: microRNA oligo, concentration not stated
[3] = Eterna round: R95, input ligand: none
[4] = input ligand: microRNA oligo, concentration not stated

Sequence	apparent KD of MS2 coat protein [2]	apparent KD of MS2 coat protein (input ligand: FMN 200 uM)	apparent KD of MS2 coat protein (input ligand: none)	also measured
AGUACUAACACGAGAGUGUUAGUACUAUAAGCUUGUGUUACAUGAGGAUCACCCAUGUCCUCAUAGGCUCGUCUUAG [Mat - Sensor v3 - Turn-off var 2 - D83] (puzzle: Sensor v3, turn-off variant 2)	42.7 nM			apparent KD of MS2 coat protein [1]: 80.4 nM; apparent KD of MS2 coat protein [3]: 87.3 nM
AAAAUGUCAGGAUAUUGUUAGUUUAGUUGUUUGUAUUAGUUCGAGAAGGGACAUGAGGAUCACCCAUGUGAAAA [Ex4 #68] (Eterna round: R97, puzzle: Exclusion 4)		42.5 nM	35.8 nM	
CACCUGAAGAGAGGAUAUGAUACAUGAGGAUCACCCAUGUAAUAAAUGAGAAUUUCGAAUGUAAUUCAGAAGGCUCGAUAAGGC [Ostricism 100 - Jieux - Exclusion NG 2] (Eterna round: R96, puzzle: Exclusion NG 2)		121 nM	55.3 nM	apparent KD of MS2 coat protein [4]: 45.6 nM
GAAAAGGUAGGAUAUACGAAAAAAAAGGGUAGAAAAAAAACACAUGAGGAUCACCCAUGUAGAAGGACCAUAAG [salish99_ex2_r3_091] (puzzle: Exclusion 2)	29.9 nM			apparent KD of MS2 coat protein [1]: 63.3 nM; apparent KD of MS2 coat protein [3]: 29.2 nM
GAUCAUGCAGGAUAUACAUGGACCAUGAAAACAUGGAUUUCACAUGAGGAUCACCCAUGUAGAAGGGCAUGAUC [Omei Ex2 A9] (Eterna round: R97, puzzle: Exclusion 2)		82.1 nM	777 nM	
AUAUCGUGAGGAUAUCCAAUAUAUGACAUGAGGAUCACCCAUGUUUCCACUCGUACCUCCGGAGAAGGCACAGUUA [Ex5 #72] (Eterna round: R97, puzzle: Exclusion 5)		23.9 nM	24.5 nM	
ACUUCGUCAGGAUAUCGAGUGACCAAGUACACUGGCUUGGCUGAGAAGGGACAUGAGGAUCACCCAUGUGGGAG [Eternabot (L1) Solution 52] (Eterna round: R97, puzzle: Exclusion 4)		356 nM	187 nM	
ACGUAUCAUGUCAGGAUAUAGCUAGCUACGGCUAGCUAGAAGGGACAUGAGGAUCACCCAUGUCAAAGAUACGU (puzzle: Brourd's mod of Exclusion 4)	13.2 nM			
ACUAAGGUAGGAUAUACGUGCGUGAUCGUGCCUUAGCUGGCACAUGAGGAUCACCCAUGUAGAAGGGCCAGACA [Esraleon] (Eterna round: R97, puzzle: Exclusion 2)		17.4 nM	19.8 nM	
AUAUUAAUAGUAAGGAUAUGCGUAUAUAUAGUUAUGCAGAAGGUACAUGAGGAUCACCCAUGUAUUAAUGUGUA [LRO-BmodExc4-03-Oppy's Opus] (Eterna round: R97, puzzle: Brourd's mod of Exclusion 4)		14.9 nM	14.3 nM	
AGUCGUAGACAGGAUAUGCGGCUAAUAAAUAAAGCAGAAGGGUCUACUUGAGGAUCACCCAAGUGGGCGGUUAA [jl-ex6-4.19 ViennaUCT mod] (Eterna round: R97, puzzle: Exclusion 6)		104 nM	20.8 nM	
UCAUGUCCAGAGGAUAUGUAGCGGGAGACCGCAACAGAAGGCUGGACAUGAGGAUCACCCAUGUGCGCCUUCAA [jl-ex3-4.28 ViennaUCT mod] (Eterna round: R97, puzzle: Exclusion 6)		43 nM	352 nM	
AAAUUAGCAAGUAGGUCCGACAUGAGGAUCACCCAUGUAAUCUAAAAUUACGCUGCACGAAAGUGCGCUCGUCUUAG [Sensor-V1 #12] (Eterna round: R97, puzzle: Sensor, turn-off variant 1)		439 nM	385 nM	
AUUCAACAUGAGGAUCACCCAUGUGAGGAUAUGCGAGUGUAGACUUCGGUUUGAUAGAGCAGAAGGCGCAGGUA [EX1 #12] (Eterna round: R97, puzzle: Exclusion 1)		35.9 nM	33.3 nM	
AACCAGCGAGGAUAUCGUUCGGAUAACAUGAGGAUCACCCAUGUGAGUCGUGUUUACGAACGAGAAGGCGCGACUC [Cequus] (Eterna round: R97, puzzle: Exclusion 5)		218 nM	798 nM	
AAUUUACAUGAGGAUCACCCAUGUCAGGAUAUGGUUUUAUUUUUUUUUUUUUUUGAUUCCAGAAGGGACAGUUA (puzzle: Exclusion 1)	22.7 nM			
AAGAAGACAGGAUAUACAUGAAAGAAAGAAAAGAAAAGAAAACAUGAGGAUCACCCAUGUAGAAGGGUCAAGAA [EteRNA is fun!] (Eterna round: R96, puzzle: Exclusion 2)				apparent KD of MS2 coat protein [4]: 35.8 nM
CAAGUGCCGGAAGGAUAUCAGCGAUGUCACGCUUGAGAAGGUCUGUGCACAUGAGGAUCACCCAUGUCCGCCAGACUCCUUAAC [Eternabot solution 21] (Eterna round: R96, puzzle: Exclusion NG 1)				apparent KD of MS2 coat protein [4]: 7.68 nM

Sequence	apparent KD of MS2 coat protein [2]	apparent KD of MS2 coat protein (input ligand: FMN 200 uM)	apparent KD of MS2 coat protein (input ligand: none)	also measured
GAGUGACAUGAGGAUCACCCAUGUGAGGAUAUCGGACGGACCAAAUUAACAAUUUUUGCGAGAAGGCACAUCGG [Exclusion 1 V18] (puzzle: Exclusion 1)	51.9 nM			
GCGCAAACGCCAAAAGGCGAAAUUACAUGAGGAUCACCCAUGUAGGAUAUCGAUUGCUUUGCAGUCGAGAAGGACAUGAUGCGC [JL ENG3 3.80 Mod 1] (Eterna round: R96, puzzle: Exclusion NG 3)				apparent KD of MS2 coat protein [4]: 13.6 nM
ACUGGAGCAGGAUAUAUAUGACGUGCUUCGGCACGAAGGUCACAUGAGGAUCACCCAUGUAGAAGGGCUCCAGU [E2/9-D1] (Eterna round: R97, puzzle: Exclusion 2)		225 nM	46.7 nM	
GAUCACUGAGGAUAUACACAGAUACAAAGUAUCUGAUAGUGACAUGAGGAUCACCCAUGUAGAAGGCAGAGGUC [Omei Ex2 B8] (Eterna round: R97, puzzle: Exclusion 2)		433 nM	72.2 nM	
GUAAAGUGAGGAUAUGGUGAGUAGUGCCUGAGCGCUGCUCACCAGAAGGCACAUGAGGAUCACCCAUGUAUAGC [Mat - Exclusion 4 - Mod of JL - D17] (puzzle: Exclusion 4)	14 nM			
GCCGUGCAAGGAUAUCGCGGAAAGAACAUGAGGAUCACCCAUGUGAUCACCUUCUAAAUGCGAGAAGGUGCUAAAA [Axebied] (puzzle: Exclusion 5)	56 nM			apparent KD of MS2 coat protein [1]: 75.7 nM; apparent KD of MS2 coat protein [3]: 81.4 nM
GGGCCCGGUGUGAGGAUAUGAGUUCGGAAAUGAGCUUAGAAGGCACAUGAGGAUCACCCAUGUAAGCCGGGCCC [-34.2, -32.1 kcal, A 26%, 1-0] (Eterna round: R97, puzzle: Brourd's mod of Exclusion 4)		14.3 nM	35.6 nM	
AAGUAUAGAGGAUAUAGUGAGUACUACAUGAGGAUCACCCAUGUUCUUCAAAGCGUACUUCUAGAAGGCUGUUAAA [EX-5 Malc#17] (puzzle: Exclusion 5)	263 nM			apparent KD of MS2 coat protein [1]: 452 nM; apparent KD of MS2 coat protein [3]: 214 nM
UUUAAUUUUUUUUUUUUACAAGCUUUUUGCUCGUCUUAUACAUGAGGAUCACCCAUGUGGAUGGGAGGUAAAUUAUC [JMF 74] (puzzle: Sensor v3, turn-off variant 2)	153 nM			apparent KD of MS2 coat protein [1]: 25.4 nM; apparent KD of MS2 coat protein [3]: 25.3 nM
CCUGUGUAAGGAUAUGACAAUGGUAUCUUCGGAUACCAUUGUCAGAAGGUACAUGAGGAUCACCCAUGUAACAC [Ex4-3: 13] (puzzle: Exclusion 4)	14.8 nM			
CCGCUCCGUGUAGGAUAUCGGUGUACCCUGCGCCGAGAAGGACAUGAGGAUCACCCAUGUAUGUUAUUAUCACGCGUGGCGCAC [Design 73] (Eterna round: R96, puzzle: Exclusion NG 1)		37.7 nM	37.7 nM	apparent KD of MS2 coat protein [4]: 18.9 nM
GCUGUCACCGUUAGGAUAUGUGAUUAAAUAUGAUCGCAGAAGGAACAUGAGGAUCACCCAUGUCGAUCCGUCCG [Eternabot (L1) Solution 36] (Eterna round: R97, puzzle: Brourd's mod of Exclusion 4)		34.8 nM	23.1 nM	
UGAUUGAUUAACAGAUUAUACAUGAGGAUCACCCAUGUAGGUCCUACGUGCCCUUUAUGCAGCUCGUCUUAUUCCCA [Sensor-V1 #70] (Eterna round: R97, puzzle: Sensor, turn-off variant 1)		53.6 nM	50 nM	
ACCACCUUAGUCAGGAUAUAGCUUCUAGCAAGAUACUAGAAGGGACAUGAGGAUCACCCAUGUAAAGGUGCUAA [Ramais] (puzzle: Brourd's mod of Exclusion 4)	29 nM			apparent KD of MS2 coat protein [1]: 25.3 nM; apparent KD of MS2 coat protein [3]: 27.2 nM
UAAGAGUGAGGAUAUGCGUCGCUGGUCCGGAUGGACGCAUGACAUGAGGAUCACCCAUGUAGAAGGCACAAAAC [Enxela Mod 5 - Jieux - Exclusion 2] (Eterna round: R97, puzzle: Exclusion 2)		23.5 nM	23.5 nM	
CGAGUGUAAGGAUAUUCGGCGCCAGGGAACAACCUAGCGUAGAAGAAGGUACAUGAGGAUCACCCAUGUGGUUA [Riatees] (puzzle: Exclusion 4)	151 nM			
UACAUGAGGAUCACCCAUGUUUUGUCGUGUAUGGUACCCAUCUAGGAUAUCGUGUUAUUUAACCACGAGAAGGAGAGUAUCAAU [MOD4 Solution 21 by JMF] (Eterna round: R96, puzzle: Exclusion NG 3)		22.4 nM	21.8 nM	apparent KD of MS2 coat protein [4]: 13 nM
UUGCCACAUGAGGAUCACCCAUGUGAGGAUAUGGCCCGCCCGGCGUGUGCUGGUUUUGUCAGAAGGCGCGUGGG [salish99_ex1_r4_029] (Eterna round: R97, puzzle: Exclusion 1)		52.4 nM	27.9 nM	
